In the Human Domainome abundance scans (Beltran et al. 2025) one finds abundance fitness data, which are given here for 167 variants.

First the molecules themselves.
B1: RAS guanyl-releasing protein 1, residues 539 to 593; numbered along this chain, O95267 (parent)
chain: GFPHNFQETTYLKPTFCDNCAGFLWGVIKQGYRCKDCGMNCHKQCKDLVVFECKK
B2: POU domain, class 4, transcription factor 2, residues 256 to 327; numbered along this chain, Q12837 (parent)
chain: RDLEAFAERFKQRRIKLGVTQADVGSALANLKIPGVGSLSQSTICRFESLTLSHNNMIALKPILQAWLEEAE

± gives the uncertainty stated by the source.

In one data set the parent is B1. The data set is described as follows: abundance fitness (aPCA) (normalised: wild type 0, dead -1); higher = more abundant; growth selection in yeast, the domain comes from the species named. The following applies: Homo sapiens.
Regarding V50C, the abundance fitness turned out to be 0.042 ± 0.06. On to V50L, for which the abundance fitness worked out at 0.07 ± 0.079. As to V50K, the abundance fitness was -0.383 ± 0.15. As for V50S, the abundance fitness was -0.03 ± 0.057.

Take V50G: the abundance fitness was -0.076 ± 0.071. For the variant V50E, the abundance fitness amounted to 0.037 ± 0.061. Turning to V50Q, the abundance fitness is 0.06 ± 0.1.

Consider V50A, for which the abundance fitness is -0.064 ± 0.1. With V50N, the abundance fitness is -0.228 ± 0.11. Consider V50W, for which the abundance fitness was -0.121 ± 0.071. As to D47C, the abundance fitness was determined as 0.212 ± 0.097.

As for D47K, the abundance fitness was -0.148 ± 0.096. For the variant D47Q, the abundance fitness was 0.083 ± 0.12.

In the case of D47R, the abundance fitness is -0.177 ± 0.08. On the same count and under the same terms, next, D47F: -0.143 ± 0.41; D47V: -0.113 ± 0.083; D47Y: -0.105 ± 0.14. The same measure, in the same setting: in the case of D47P it was -0.054 ± 0.11. As to D47W, the abundance fitness is -0.142 ± 0.082. In the case of D47G, the abundance fitness is -0.05 ± 0.058. D47I: the abundance fitness is -0.211 ± 0.1.

As for D47M, the abundance fitness was -0.204 ± 0.11.

As to D47T, the abundance fitness was 0.047 ± 0.09. In the case of D47N, the abundance fitness is -0.306 ± 0.14. Turning to D47A, the abundance fitness was -0.056 ± 0.09.

On to D47H, for which the abundance fitness was -0.32 ± 0.17. Consider D47S, for which the abundance fitness worked out at 0.068 ± 0.082. For D47L, the abundance fitness was -0.141 ± 0.063.

Take K54P: the abundance fitness is -0.586 ± 0.31.

As for K54E, the abundance fitness is -0.103 ± 0.1.

For K54D, the abundance fitness is -0.186 ± 0.15. Still for that read-out and setting: in the case of K54L it was -0.269 ± 0.087; in that of K54C, -0.157 ± 0.046.

Take K54M: the abundance fitness turned out to be 0.018 ± 0.098. Still for that read-out and setting: in the case of K54R it was -0.028 ± 0.076; in that of K54A, -0.233 ± 0.1.

For K54G, the abundance fitness is -0.303 ± 0.1. K54F: the abundance fitness was -0.228 ± 0.092. For the variant K54Q, the abundance fitness is -0.113 ± 0.16. For the variant K54V, the abundance fitness was -0.248 ± 0.076. The same measure, in the same setting: in the case of K54I it was -0.266 ± 0.12. For K54H, the abundance fitness was -0.567 ± 0.27. The same measure, in the same setting: in the case of K54W it was -0.378 ± 0.13.

As for K54N, the abundance fitness was -0.113 ± 0.089.

Variants of B2 are the subject of another data set. The data set is described as above. Conditions: Homo sapiens.
With M57T, the abundance fitness is -0.701 ± 0.13. On the same count and under the same terms, in the case of V36D it was -0.278 ± 0.21. On to V36A, for which the abundance fitness is -0.18 ± 0.085.

On to I63S, for which the abundance fitness is -0.224 ± 0.033. In the case of I63W, the abundance fitness is -0.443 ± 0.25. Consider G35N, for which the abundance fitness was -0.116 ± 0.24. Consider T43D, for which the abundance fitness was -0.114 ± 0.13. Same read-out and setting: next, T43V: -0.01 ± 0.064; I15H: -0.451 ± 0.13. Turning to I15Y, the abundance fitness was -0.444 ± 0.15.

For A29V, the abundance fitness is -0.237 ± 0.092. Consider G25C, for which the abundance fitness is 0.131 ± 0.14.

Turning to G25S, the abundance fitness was 0.166 ± 0.052.

For G25K, the abundance fitness is -0.264 ± 0.19.

Turning to G37K, the abundance fitness was -0.209 ± 0.11. As for G37L, the abundance fitness was -0.205 ± 0.074.

In the case of A71K, the abundance fitness was -0.125 ± 0.17. As for A71G, the abundance fitness was -0.284 ± 0.077.

Take K61G: the abundance fitness was -0.47 ± 0.1. Still for that read-out and setting: next, K61Q: -0.047 ± 0.097; K61N: -0.393 ± 0.21.

As to K61R, the abundance fitness worked out at 0.049 ± 0.071. A5R: the abundance fitness is -0.001 ± 0.068. On to A5Q, for which the abundance fitness was -0.055 ± 0.12. Consider A5F, for which the abundance fitness was 0.033 ± 0.1. On the same count and under the same terms, in the case of A5V it was 0.004 ± 0.11; in that of E48A, -0.802 ± 0.13; in that of L17Q, -0.513 ± 0.1. Same read-out and setting: next, L17H: -1.06 ± 0.4; L17S: -0.565 ± 0.074. With I44P, the abundance fitness is -0.923 ± 0.17.

Regarding C45I, the abundance fitness was -0.261 ± 0.15. C45E: the abundance fitness amounted to 0.156 ± 0.14. Still for that read-out and setting: in the case of Q21C it was -0.024 ± 0.097; in that of Q21G, -0.241 ± 0.057. Still for that read-out and setting: in the case of P34T it was -0.275 ± 0.092.

Regarding A22V, the abundance fitness is -0.339 ± 0.08.

For the variant E72T, the abundance fitness was -0.498 ± 0.28. As to A7C, the abundance fitness is -0.358 ± 0.13. With A7N, the abundance fitness was -0.907 ± 0.41.

Regarding I33G, the abundance fitness is -0.116 ± 0.11. As for K32T, the abundance fitness was -0.112 ± 0.11. For K32I, the abundance fitness is -0.181 ± 0.058. Take L3M: the abundance fitness came out at 0.064 ± 0.089. L3R: the abundance fitness was -0.74 ± 0.1.

With L68C, the abundance fitness was -0.585 ± 0.22. Turning to L68Y, the abundance fitness was -0.372 ± 0.17. E69S: the abundance fitness was -0.097 ± 0.051.

With E69Y, the abundance fitness is -0.367 ± 0.13.

In the case of A27N, the abundance fitness is -0.323 ± 0.14.

Consider A27M, for which the abundance fitness was -0.234 ± 0.092.

For A27T, the abundance fitness is -0.434 ± 0.11. With A27D, the abundance fitness is -0.123 ± 0.2.

With A27C, the abundance fitness is -0.215 ± 0.095. On to F47G, for which the abundance fitness was -0.834 ± 0.16.

As to F47M, the abundance fitness is -0.781 ± 0.17. With F47S, the abundance fitness is -0.996 ± 0.15. For F47A, the abundance fitness is -0.278 ± 0.17. As for Q41S, the abundance fitness is -0.044 ± 0.061. Turning to Q41I, the abundance fitness was -0.275 ± 0.14. Same read-out and setting: next, G18H: -0.292 ± 0.088. Take S38W: the abundance fitness is -0.209 ± 0.093. Still for that read-out and setting: in the case of S38C it was -0.092 ± 0.077; in that of F10M, -0.694 ± 0.34; in that of F10C, -0.817 ± 0.33. Regarding F10G, the abundance fitness was -0.955 ± 0.17. Consider F10R, for which the abundance fitness was -0.814 ± 0.099. On the same count and under the same terms, next, N30Q: -0.059 ± 0.067. Turning to S26E, the abundance fitness came out at 0.048 ± 0.11. Turning to S26Q, the abundance fitness was -0.07 ± 0.095.

As to L52H, the abundance fitness is -0.729 ± 0.28. L52T: the abundance fitness was -0.683 ± 0.15. For L52F, the abundance fitness was -0.682 ± 0.21. For the variant L52R, the abundance fitness is -0.883 ± 0.12. Consider L52G, for which the abundance fitness is -0.679 ± 0.12. In the case of R9E, the abundance fitness is 0.263 ± 0.1. For R13Q, the abundance fitness was -0.113 ± 0.087. On to R13W, for which the abundance fitness was -0.338 ± 0.099. For K16I, the abundance fitness was -0.016 ± 0.1.

In the case of I58Y, the abundance fitness was -0.461 ± 0.16.

Turning to I58W, the abundance fitness is -0.152 ± 0.061. For I58V, the abundance fitness was -0.028 ± 0.081. In the case of S40Q, the abundance fitness is -0.293 ± 0.19. On the same count and under the same terms, next, L64I: -0.394 ± 0.097.

L64R: the abundance fitness was -1.08 ± 0.22.

For the variant A59R, the abundance fitness is -0.032 ± 0.043. For T51R, the abundance fitness is -0.111 ± 0.067. Turning to T51F, the abundance fitness is -0.414 ± 0.11. Turning to V19D, the abundance fitness is -0.614 ± 0.12. Regarding V19Q, the abundance fitness was -0.027 ± 0.1. On the same count and under the same terms, in the case of E70Y it was -0.028 ± 0.48.

Turning to E70K, the abundance fitness stood at 0.076 ± 0.14. Regarding E70H, the abundance fitness is -0.666 ± 0.17. The same measure, in the same setting: in the case of R14Q it was -0.819 ± 0.18. Regarding R14S, the abundance fitness was -0.904 ± 0.1. The same measure, in the same setting: in the case of R14C it was -0.854 ± 0.21; in that of D23A, -0.172 ± 0.069; in that of E8M, -0.137 ± 0.1. With E8V, the abundance fitness is -0.121 ± 0.087.

In the case of L28H, the abundance fitness was -0.786 ± 0.19. On to R46S, for which the abundance fitness is 0.076 ± 0.045.

As for T20K, the abundance fitness was -0.159 ± 0.083.

In the case of P62D, the abundance fitness is -0.18 ± 0.33. On to Q65G, for which the abundance fitness is -0.106 ± 0.043. With Q65N, the abundance fitness is -0.309 ± 0.15. As for D2Y, the abundance fitness was -0.171 ± 0.37. With D2A, the abundance fitness was -0.241 ± 0.074. For N56C, the abundance fitness is 0.146 ± 0.12.

Turning to N56P, the abundance fitness is -0.52 ± 0.082. As to N56M, the abundance fitness was -0.304 ± 0.31. Turning to N56K, the abundance fitness turned out to be 0.048 ± 0.17. Same read-out and setting: next, N56V: 0.083 ± 0.2; N56W: -0.057 ± 0.13; H54R: 0.081 ± 0.047. For the variant H54P, the abundance fitness was -0.079 ± 0.051. Turning to S53A, the abundance fitness is -0.163 ± 0.046. Take S53V: the abundance fitness is -0.492 ± 0.11. With V24P, the abundance fitness is -0.928 ± 0.24. Same read-out and setting: next, V24N: -0.821 ± 0.25; V24A: -0.067 ± 0.13; S49K: 0.069 ± 0.3. On the same count and under the same terms, in the case of S49D it was -0.106 ± 0.17; in that of R1T, -0.186 ± 0.14.
